Laboratory results reported in article PMC5845931.
pKd: −log10 of the molar value.

Key:
[1] = biological target: PepTSt wild type, proton-dependent oligopeptide transporter from Streptococcus thermophilus (Streptococcus thermophilus) (UniProt Q5M4H8); assay: MST; label-free (intrinsic tryptophan fluorescence of PepTSt); 125 nM PepTSt constant, peptide titrated up to the millimolar range; 22°C; pH 7.5, 100 mM Tris-HCl, 150 mM NaCl, 0.03% DDM
[2] = biological target: PepTSt wild type, proton-dependent oligopeptide transporter from Streptococcus thermophilus (Streptococcus thermophilus) (UniProt Q5M4H8); assay: MST; label-free (intrinsic tryptophan fluorescence of PepTSt); 125 nM PepTSt constant, peptide titrated; 22°C; pH 5.5, 100 mM citrate, 150 mM NaCl, 0.03% DDM
[3] = biological target: PepTSt wild type, proton-dependent oligopeptide transporter from Streptococcus thermophilus (Streptococcus thermophilus) (UniProt Q5M4H8); assay: MST; label-free (intrinsic tryptophan fluorescence of PepTSt); 125 nM PepTSt constant, peptide titrated; 22°C; pH 4.5, 100 mM citrate, 150 mM NaCl, 0.03% DDM
[4] = biological target: PepTSt wild type, proton-dependent oligopeptide transporter from Streptococcus thermophilus (Streptococcus thermophilus) (UniProt Q5M4H8); assay: MST; label-free (intrinsic tryptophan fluorescence of PepTSt); 125 nM PepTSt constant, peptide titrated up to the millimolar range; 22°C; pH 7.5, 100 mM HEPES, 150 mM NaCl, 0.03% DDM
[5] = biological target: PepTSt wild type, proton-dependent oligopeptide transporter from Streptococcus thermophilus (Streptococcus thermophilus) (UniProt Q5M4H8); assay: MST; label-free (intrinsic tryptophan fluorescence of PepTSt); 125 nM PepTSt constant, peptide titrated up to the millimolar range; 22°C; pH 7.5, 100 mM NaPi, 150 mM NaCl, 0.03% DDM
[6] = biological target: PepTSt wild type, proton-dependent oligopeptide transporter from Streptococcus thermophilus (Streptococcus thermophilus) (UniProt Q5M4H8); assay: MST; label-free (intrinsic tryptophan fluorescence of PepTSt); 125 nM PepTSt constant, peptide titrated; 22°C; pH 5.0, 100 mM citrate, 150 mM NaCl, 0.03% DDM

Substance	pKd [1]	further results
Asp-Glu (peptide)	< 1.30	
Ala-Phe (peptide)	3.02	
Ala-Asp (peptide)	< 1.00	
Ala-Leu (peptide)		pKd [3]: < 1.30; pKd [4]: 3.25

More lines, main results first:

pKd [1]	Substance	further results
1.96	Phe-Ala (peptide)	
1.86	Leu-Ala (peptide)	pKd [2]: 1.64; pKd [3]: < 1.00; pKd [4]: 1.87; pKd [5]: 2.02; pKd [6]: 1.33
2.45	Leu-Leu (peptide)	
2.17	Ala-Gln (peptide)	
2.07	Ala-Ala (peptide)	
